First the molecules themselves.
T1: EsCas13d, nuclease-dead (Eubacterium siraeum, UniProt B0MS50, R295A;H300A;R849A;H854A)
T1 sequence: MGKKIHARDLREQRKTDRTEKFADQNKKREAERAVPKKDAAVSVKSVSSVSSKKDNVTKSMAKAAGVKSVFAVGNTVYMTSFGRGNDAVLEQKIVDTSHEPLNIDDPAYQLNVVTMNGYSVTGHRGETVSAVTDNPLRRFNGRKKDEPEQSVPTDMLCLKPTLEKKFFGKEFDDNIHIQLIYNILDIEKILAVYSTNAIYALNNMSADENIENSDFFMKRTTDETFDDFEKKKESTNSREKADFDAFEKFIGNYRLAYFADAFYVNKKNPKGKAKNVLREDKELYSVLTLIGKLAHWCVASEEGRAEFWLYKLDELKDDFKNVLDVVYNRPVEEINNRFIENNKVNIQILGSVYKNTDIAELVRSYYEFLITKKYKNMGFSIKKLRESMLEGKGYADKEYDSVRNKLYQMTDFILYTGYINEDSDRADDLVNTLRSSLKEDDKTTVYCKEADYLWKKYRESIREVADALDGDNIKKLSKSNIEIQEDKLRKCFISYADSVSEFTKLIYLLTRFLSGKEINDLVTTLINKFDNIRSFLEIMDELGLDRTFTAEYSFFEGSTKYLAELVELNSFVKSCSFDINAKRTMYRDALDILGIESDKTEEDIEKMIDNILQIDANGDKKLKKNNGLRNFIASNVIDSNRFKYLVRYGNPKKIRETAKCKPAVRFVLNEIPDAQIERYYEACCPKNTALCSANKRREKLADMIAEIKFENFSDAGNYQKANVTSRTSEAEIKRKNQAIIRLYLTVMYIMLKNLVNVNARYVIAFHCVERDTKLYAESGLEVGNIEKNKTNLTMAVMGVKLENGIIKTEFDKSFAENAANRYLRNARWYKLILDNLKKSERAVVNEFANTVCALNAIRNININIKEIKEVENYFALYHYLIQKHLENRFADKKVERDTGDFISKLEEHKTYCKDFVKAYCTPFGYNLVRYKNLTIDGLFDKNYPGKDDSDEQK

B1: target 1 G13A,C22U (mixed)
RNA 1: CACCCGUGCAAAAAUGCAGGGGUCUAAAACUGAGCGGAUAACCUCUCUAUGG
RNA 2: GGGAAUGGAUCCACAUCUACGAAUUCGUAUCAUAGAGAAGUUAUCCGCUCACCGAGAUCGGAAGAGCACACGU
B2: target 1 A9U,U11A (mixed)
RNA 1: CACCCGUGCAAAAAUGCAGGGGUCUAAAACUGAGCGGAUAACCUCUCUAUGG
RNA 2: GGGAAUGGAUCCACAUCUACGAAUUCGUACCAUAGAGAGGAUUUCCGCUCACCGAGAUCGGAAGAGCACACGU
B3: target 1 MT 5'PFS UGC 3'PFS CUA (mixed)
RNA 1: CACCCGUGCAAAAAUGCAGGGGUCUAAAACUGAGCGGAUAACCUCUCUAUGG
RNA 2: GGGAAUGGAUCCACAUCUACGAAUUCUGCCCAUAGAGAGGUUAUCCGCUCACUAAGAUCGGAAGAGCACACGU
B4: target 1 MT 5'PFS AAG 3'PFS CGA (mixed)
RNA 1: CACCCGUGCAAAAAUGCAGGGGUCUAAAACUGAGCGGAUAACCUCUCUAUGG
RNA 2: GGGAAUGGAUCCACAUCUACGAAUUCAAGCCAUAGAGAGGUUAUCCGCUCACGAAGAUCGGAAGAGCACACGU
B5: target 1 MT 5'PFS AUG 3'PFS CUC (mixed)
RNA 1: CACCCGUGCAAAAAUGCAGGGGUCUAAAACUGAGCGGAUAACCUCUCUAUGG
RNA 2: GGGAAUGGAUCCACAUCUACGAAUUCAUGCCAUAGAGAGGUUAUCCGCUCACUCAGAUCGGAAGAGCACACGU
B6: target 1 U10A,U11G (mixed)
RNA 1: CACCCGUGCAAAAAUGCAGGGGUCUAAAACUGAGCGGAUAACCUCUCUAUGG
RNA 2: GGGAAUGGAUCCACAUCUACGAAUUCGUACCAUAGAGAGGGAAUCCGCUCACCGAGAUCGGAAGAGCACACGU
B7: target 1 MT 5'PFS AAG 3'PFS CGG (mixed)
RNA 1: CACCCGUGCAAAAAUGCAGGGGUCUAAAACUGAGCGGAUAACCUCUCUAUGG
RNA 2: GGGAAUGGAUCCACAUCUACGAAUUCAAGCCAUAGAGAGGUUAUCCGCUCACGGAGAUCGGAAGAGCACACGU
B8: target 1 MT 5'PFS UCA 3'PFS AAG (mixed)
RNA 1: CACCCGUGCAAAAAUGCAGGGGUCUAAAACUGAGCGGAUAACCUCUCUAUGG
RNA 2: GGGAAUGGAUCCACAUCUACGAAUUCUCACCAUAGAGAGGUUAUCCGCUCAAAGAGAUCGGAAGAGCACACGU
B9: target 1 MT 5'PFS AGU 3'PFS AAA (mixed)
RNA 1: CACCCGUGCAAAAAUGCAGGGGUCUAAAACUGAGCGGAUAACCUCUCUAUGG
RNA 2: GGGAAUGGAUCCACAUCUACGAAUUCAGUCCAUAGAGAGGUUAUCCGCUCAAAAAGAUCGGAAGAGCACACGU
B10: target 1 MT 5'PFS GUA 3'PFS UGA (mixed)
RNA 1: CACCCGUGCAAAAAUGCAGGGGUCUAAAACUGAGCGGAUAACCUCUCUAUGG
RNA 2: GGGAAUGGAUCCACAUCUACGAAUUCGUACCAUAGAGAGGUUAUCCGCUCAUGAAGAUCGGAAGAGCACACGU
B11: target 1 MT 5'PFS GUA 3'PFS UGC (mixed)
RNA 1: CACCCGUGCAAAAAUGCAGGGGUCUAAAACUGAGCGGAUAACCUCUCUAUGG
RNA 2: GGGAAUGGAUCCACAUCUACGAAUUCGUACCAUAGAGAGGUUAUCCGCUCAUGCAGAUCGGAAGAGCACACGU
B12: target 1 MT 5'PFS AGU 3'PFS AAG (mixed)
RNA 1: CACCCGUGCAAAAAUGCAGGGGUCUAAAACUGAGCGGAUAACCUCUCUAUGG
RNA 2: GGGAAUGGAUCCACAUCUACGAAUUCAGUCCAUAGAGAGGUUAUCCGCUCAAAGAGAUCGGAAGAGCACACGU
B13: target 1 MT 5'PFS UCA 3'PFS AAU (mixed)
RNA 1: CACCCGUGCAAAAAUGCAGGGGUCUAAAACUGAGCGGAUAACCUCUCUAUGG
RNA 2: GGGAAUGGAUCCACAUCUACGAAUUCUCACCAUAGAGAGGUUAUCCGCUCAAAUAGAUCGGAAGAGCACACGU
B14: target 1 MT 5'PFS UGU 3'PFS AUA (mixed)
RNA 1: CACCCGUGCAAAAAUGCAGGGGUCUAAAACUGAGCGGAUAACCUCUCUAUGG
RNA 2: GGGAAUGGAUCCACAUCUACGAAUUCUGUCCAUAGAGAGGUUAUCCGCUCAAUAAGAUCGGAAGAGCACACGU
B15: target 1 insC 3' of 20,insG 3' of 18 (mixed)
RNA 1: CACCCGUGCAAAAAUGCAGGGGUCUAAAACUGAGCGGAUAACCUCUCUAUGG
RNA 2: GGGAAUGGAUCCACAUCUACGAAUUCGUACCACUAGGAGAGGUUAUCCGCUCACCGAGAUCGGAAGAGCACACGU
B16: target 1 MT 5'PFS AGU 3'PFS AAC (mixed)
RNA 1: CACCCGUGCAAAAAUGCAGGGGUCUAAAACUGAGCGGAUAACCUCUCUAUGG
RNA 2: GGGAAUGGAUCCACAUCUACGAAUUCAGUCCAUAGAGAGGUUAUCCGCUCAAACAGAUCGGAAGAGCACACGU
B17: target 1 MT 5'PFS UCA 3'PFS AAC (mixed)
RNA 1: CACCCGUGCAAAAAUGCAGGGGUCUAAAACUGAGCGGAUAACCUCUCUAUGG
RNA 2: GGGAAUGGAUCCACAUCUACGAAUUCUCACCAUAGAGAGGUUAUCCGCUCAAACAGAUCGGAAGAGCACACGU
B18: target 1 MT 5'PFS CUA 3'PFS UCU (mixed)
RNA 1: CACCCGUGCAAAAAUGCAGGGGUCUAAAACUGAGCGGAUAACCUCUCUAUGG
RNA 2: GGGAAUGGAUCCACAUCUACGAAUUCCUACCAUAGAGAGGUUAUCCGCUCAUCUAGAUCGGAAGAGCACACGU
B19: target 1 MT 5'PFS AAC 3'PFS UAU (mixed)
RNA 1: CACCCGUGCAAAAAUGCAGGGGUCUAAAACUGAGCGGAUAACCUCUCUAUGG
RNA 2: GGGAAUGGAUCCACAUCUACGAAUUCAACCCAUAGAGAGGUUAUCCGCUCAUAUAGAUCGGAAGAGCACACGU
B20: target 1 MT 5'PFS UAU 3'PFS CUU (mixed)
RNA 1: CACCCGUGCAAAAAUGCAGGGGUCUAAAACUGAGCGGAUAACCUCUCUAUGG
RNA 2: GGGAAUGGAUCCACAUCUACGAAUUCUAUCCAUAGAGAGGUUAUCCGCUCACUUAGAUCGGAAGAGCACACGU
B21: target 1 MT 5'PFS UAA 3'PFS UGC (mixed)
RNA 1: CACCCGUGCAAAAAUGCAGGGGUCUAAAACUGAGCGGAUAACCUCUCUAUGG
RNA 2: GGGAAUGGAUCCACAUCUACGAAUUCUAACCAUAGAGAGGUUAUCCGCUCAUGCAGAUCGGAAGAGCACACGU
B22: target 1 MT 5'PFS GCA 3'PFS AGU (mixed)
RNA 1: CACCCGUGCAAAAAUGCAGGGGUCUAAAACUGAGCGGAUAACCUCUCUAUGG
RNA 2: GGGAAUGGAUCCACAUCUACGAAUUCGCACCAUAGAGAGGUUAUCCGCUCAAGUAGAUCGGAAGAGCACACGU
B23: target 1 MT 5'PFS GUA 3'PFS UGG (mixed)
RNA 1: CACCCGUGCAAAAAUGCAGGGGUCUAAAACUGAGCGGAUAACCUCUCUAUGG
RNA 2: GGGAAUGGAUCCACAUCUACGAAUUCGUACCAUAGAGAGGUUAUCCGCUCAUGGAGAUCGGAAGAGCACACGU
B24: target 1 MT 5'PFS AAC 3'PFS UAC (mixed)
RNA 1: CACCCGUGCAAAAAUGCAGGGGUCUAAAACUGAGCGGAUAACCUCUCUAUGG
RNA 2: GGGAAUGGAUCCACAUCUACGAAUUCAACCCAUAGAGAGGUUAUCCGCUCAUACAGAUCGGAAGAGCACACGU
B25: target 1 MT 5'PFS UCA 3'PFS AAA (mixed)
RNA 1: CACCCGUGCAAAAAUGCAGGGGUCUAAAACUGAGCGGAUAACCUCUCUAUGG
RNA 2: GGGAAUGGAUCCACAUCUACGAAUUCUCACCAUAGAGAGGUUAUCCGCUCAAAAAGAUCGGAAGAGCACACGU
B26: target 1 MT 5'PFS CUU 3'PFS CUG (mixed)
RNA 1: CACCCGUGCAAAAAUGCAGGGGUCUAAAACUGAGCGGAUAACCUCUCUAUGG
RNA 2: GGGAAUGGAUCCACAUCUACGAAUUCCUUCCAUAGAGAGGUUAUCCGCUCACUGAGAUCGGAAGAGCACACGU
B27: target 1 MT 5'PFS UGC 3'PFS CUG (mixed)
RNA 1: CACCCGUGCAAAAAUGCAGGGGUCUAAAACUGAGCGGAUAACCUCUCUAUGG
RNA 2: GGGAAUGGAUCCACAUCUACGAAUUCUGCCCAUAGAGAGGUUAUCCGCUCACUGAGAUCGGAAGAGCACACGU

Among the data in article PMC10786891, “Massively parallel profiling of RNA-targeting CRISPR-Cas13d” are Kd values, retold here.

The data set has as its target T1, EsCas13d, nuclease-dead. Description: crRNA (strand 1, pre-loaded); Mg2+; 40 mM Tris-HCl pH 7.5, 150 mM NaCl, 6 mM MgCl2, 1 mM DTT, 0.1% Tween-20, 0.2 mg/ml BSA; 25 C; 10 min per concentration, then washed. The conditions noted are these: tags: His6-TwinStrep-SUMO cleaved; N-terminal SNAP kept (SNAP-Surface 488); label: 3' end held by stalled T7 RNA polymerase.
In general, Kd refers to the equilibrium constant for the complex coming apart. The molecule B1 had an equilibrium dissociation constant (Kd) of 10.7 ± 1.7 nM. Next, B2: 23.4 ± 1.1 nM; B3: 18 ± 7 nM; B4: 38 ± 16 nM. B5 displayed a Kd of 21.1 ± 5.75 nM.

Regarding B6, binding was characterised by a dissociation constant (Kd) of 11.6 ± 0.5 nM. As for B7, the figure is 41 ± 12.5 nM. As to B8, the Kd is ~70 nM. As to B9, the equilibrium dissociation constant (Kd) was ~100 nM.

Regarding B10, the equilibrium dissociation constant (Kd) is 11.2 ± 0.65 nM. Consider B11, for which the affinity, expressed as Kd, was 5.68 ± 0.46 nM.

B12 displayed a Kd of 55 ± 24 nM. As for B13, the dissociation constant (Kd) amounted to 19.2 ± 6.35 nM. For the molecule B14, binding was characterised by a dissociation constant (Kd) of 62.5 ± 23 nM. In turn, B15 showed a dissociation constant (Kd) of 12.9 ± 0.8 nM. Take B16: binding was characterised by a dissociation constant (Kd) of 49 ± 16 nM. As to B17, binding was characterised by a dissociation constant (Kd) of 18.6 ± 5.7 nM.

The molecule B18 gave a dissociation constant Kd of 4.9 ± 0.7 nM. For the molecule B19, the Kd was found to be 15 ± 5.5 nM.

As for B20, the Kd was 39.5 ± 12.5 nM. In the case of B21, binding was put at a Kd of 31 ± 8 nM. As to B22, binding was put at a Kd of 23 ± 5 nM. B23: the Kd turned out to be 58.5 ± 7.5 nM.

B24: the affinity, expressed as Kd, was 31 ± 13 nM. B25: binding was put at a Kd of 21 ± 9 nM. With B26, the affinity, expressed as Kd, was 41 ± 19 nM. B27 gave a Kd of 13.2 ± 2.8 nM.
